Key:
CA215 (human) [1] = experiment: two-step ELISA on OC-3-VGH cancer cells, goat anti-mouse IgG-ALP; OD over that of normal mouse IgG at the same concentration
[2] = biological target: CA215 on NaIO4-treated OC-3-VGH cancer cells (human); experiment: direct binding EIA on OC-3-VGH cell-coated wells, with NaIO4 treatment
CA215 (human) [3] = experiment: sandwich EIA: antibody coated at 5 µg/ml, OC-3-VGH shed medium, HRP-labeled RP215 as detector; no human IgG
CA215 (human) [4] = experiment: sandwich EIA: antibody coated at 5 µg/ml, OC-3-VGH shed medium, HRP-labeled RP215 as detector; with 10 µg/ml human IgG
CA215 (human) [5] = experiment: direct binding EIA on OC-3-VGH cell-coated wells, without NaIO4 treatment
CA215 (human) [6] = experiment: sandwich EIA: antibody coated at 5 µg/ml, OC-3-VGH shed medium, HRP-labeled RP215 as detector; no human IgG; relative to RP215
CA215 (human) [7] = experiment: sandwich EIA: antibody coated at 5 µg/ml, OC-3-VGH shed medium, HRP-labeled RP215 as detector; with 10 µg/ml human IgG; relative to RP215
[8] = biological target: RP215 monoclonal antibody; experiment: ELISA, RP215 coated in wells, goat antibody as detector; row normalised to RP215
humanized RP215 = experiment: ELISA, hRP215 coated in wells, goat antibody as detector; row normalised to RP215
human IgG (human) = experiment: ELISA, human IgG coated in wells, goat antibody as detector; row normalised to RP215
chimeric RP215 mAb = experiment: ELISA, chRP215 coated in wells, goat antibody as detector; row normalised to RP215
Sequence of chimeric RP215 mAb (VH, as listed by the source, chain 1 of 2): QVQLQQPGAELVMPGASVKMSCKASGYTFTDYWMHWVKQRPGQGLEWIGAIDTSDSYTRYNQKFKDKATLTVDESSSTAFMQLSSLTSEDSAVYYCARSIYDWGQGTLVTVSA
Sequence of chimeric RP215 mAb (VL, as listed by the source, chain 2 of 2): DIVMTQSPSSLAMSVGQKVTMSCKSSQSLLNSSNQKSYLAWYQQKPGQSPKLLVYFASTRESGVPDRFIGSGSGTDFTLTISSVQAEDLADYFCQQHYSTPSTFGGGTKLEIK

Sequence of RP215 monoclonal antibody (VH, as listed by the source, chain 1 of 2): as the sequence (VH, as listed by the source, chain 1 of 2) above
Sequence of RP215 monoclonal antibody (VL, as listed by the source, chain 2 of 2): as the sequence (VL, as listed by the source, chain 2 of 2) above

RP215 monoclonal antibody
ODs405/ODn405 (CA215 (human) [1]): 11.6 | Optical Density at 450 nm [2]: 0.797 | percent maximum binding [2]: 37% | Relative Signal Intensity in Sandwich EIA (CA215 (human) [3]): 100% | Relative Signal Intensity in Sandwich EIA (CA215 (human) [4]): 100% | Optical Density at 450 nm (CA215 (human) [5]): 2.15 | percent maximum binding (CA215 (human) [5]): 100%

chimeric RP215 mAb (antibody)
Relative Signal Intensity in Sandwich EIA (CA215 (human) [6]): 14.5% | Relative Signal Intensity in Sandwich EIA (CA215 (human) [7]): 15.4%

goat anti-mouse IgG (antibody)
Relative Intensity [8]: 100% | Relative Intensity (humanized RP215): 5% | Relative Intensity (human IgG (human)): 3% | Relative Intensity (chimeric RP215 mAb): 7%
